The results in this text go back to US11497796B2, “Agents directed against a cis RGMa/neogenin interaction or lipid rafts and use of the same in methods of treatment” (UNIVERSITY HEALTH NETWORK, priority 2013, dated 2022).

One assay relates to 4Ig-domain of DCC. The assay can be described thus: AP binding assay on coated DCC-4Ig. To be noted: closest Neogenin homologue, specificity control. As for the experimental part: (A) Different RGMa-AP proteins were incubated on wells coated with the 4Ig 6FNIII or BSA. […] Data were average±SEM (n=3 independent experiments), *p<0.005. (B) Quantification of a binding assay where 4Ig-AP and 6FNIII-AP proteins were assayed on wells coated with proteins from different RGMa regions. […] Thus, two N-RGMa fragments were identified (N-Raft and N-RGMa77-113) that bound the 4Ig and 6FNIII domains in Neogenin, respectively. C-RGMa proteins and full length RGMa only bound 6FNIII. Data were average±SEM (n=3 independent experiments), *p<0.005. […] Quantification of a binding assay where N-RGMa-AP was assayed on wells coated with proteins DCC-4Ig and Neogenin-4Ig. In this experiment Neogenin-4Ig but not DCC-4Ig interacted with N-Raft-AP. Data were average±SEM (n=4 independent experiments), *p<0.005. (D) Cis-interaction between the 4Ig domain of Neogenin and N-Raft is required for localization of Neogenin in lipid rafts. HEK-293 cells were transfected with Neogenin and RGMa constructs. BMP2 (100 nM) was added to the medium 1 hour before cells were collected. Western blotting was performed following lipid raft fractionation. Flotillin was used as a marker for lipid raft fractions, whereas the transferrin receptor (TfR) was used as a marker for heavy membrane-fractions. Every experiment was repeated twice. […]

The target in assay [1] is T1, 4Ig-domain of Neogenin (His-4Ig) (Gallus gallus, UniProt Q90610).
T1 construct: 6-His (N); myc (C); 6-His (C); made in house
T1 sequence (Q90610 1-383): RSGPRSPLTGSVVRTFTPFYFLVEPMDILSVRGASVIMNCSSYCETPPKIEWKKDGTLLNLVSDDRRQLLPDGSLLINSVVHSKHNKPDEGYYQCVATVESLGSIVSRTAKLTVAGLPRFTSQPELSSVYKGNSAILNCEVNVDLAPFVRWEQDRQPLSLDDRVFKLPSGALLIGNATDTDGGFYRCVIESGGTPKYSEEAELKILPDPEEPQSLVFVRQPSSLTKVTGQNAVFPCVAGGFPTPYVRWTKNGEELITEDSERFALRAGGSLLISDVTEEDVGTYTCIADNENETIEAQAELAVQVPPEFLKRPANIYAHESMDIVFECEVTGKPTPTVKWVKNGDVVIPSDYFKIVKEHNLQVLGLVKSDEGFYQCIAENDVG
The experiment in a line: Pull-down assay with peptide-coated beads. It counts as binding. To be noted: Western blot with anti-His. As for the experimental part:
(A) RGMa proteins were incubated on plates coated with 4Ig- or 6FNIII-AP. One C- and one N-RGMa domain (N-RGMa^77-113) interacted with 6FNIII. One N-RGMa domain (N-Raft) interacted with 4Ig. (B) Supernatants (Sup) from cells expressing His-6FNIII or His-4Ig, were pulled down (IP) with beads coated with N-Raft, N-RGMa^50-99, and N-inh. Western Blot was then performed with an anti-His antibody to reveal whether or not His-6FNIII or His-4Ig interacted with the coated beads. […] Data are average±SEM (n=3 independent experiments), *p<0.0001. Scale bar, 100 μm. (E) Chick brains were injected with control peptide (Ctrl; N-RGMa^50-99), 4Ig, N-Raft, or Noggin 1 day before preparing membrane fractionations. In control experiments, Neogenin localized to the Flotillin/RGMa-containing lipid raft fraction (as shown in solid lined boxes). 4Ig, N-Raft, or Noggin shifted Neogenin to heavy fractions.
Proteins were coupled to activated CNBr Sepharose beads (Pharmacia) according to supplier instructions. Supernatants from transfected cells were added to coupled beads for 2 h at room temperature (RT). Beads were then washed 6× with PBS plus 0.02% Tween 20, and SDS loading buffer was added. Samples were boiled and subjected to Western blotting.

The subject of a further assay is EAE paralysis. The assay can be described thus: EAE mouse model of multiple sclerosis. The format is in vivo. The note with it: 3 μg IV at days 3, 6, 9; after 17 days; control approaching 5. As for the experimental part: Specifically, whether or not 4Ig reduced paralysis in the EAE model was tested. To induce EAE, C57BL6/J mice were injected with an emulsion of MOGp35-55 peptide (50 μg, day 0) mixed with complete Freund's adjuvant (CFA). On day 2, the animals also received 400 ng of pertussis toxin (PTX) intraperitoneally in order to produce severe and reliable EAE and then were examined for clinical signs in over a 17 day period (FIG. 28).
At days 3, 6, and 9 post-EAE induction, animals were treated with either 3 μg of 4Ig in PBS (IV injection) or PBS (Control).

Another assay relates to retinal whole mounts. The assay can be described thus: Oxygen Glucose Deprivation (OGD) in retinal whole mounts, PI staining. To be noted: OGD in presence of 4Ig. The format is cell-based. As to the method:
Specifically, retinal whole mounts were subjected to OGD for 1 hour. After ischemia, whole mounts were incubated for 24 hours and dead cells were identified using propidium iodide (PI) staining.
To determine whether Neogenin required lipid raft association to induce cell death, OGD was performed on retinal whole mounts in the presence of 4Ig, which as described above, prevented Neogenin localization into lipid rafts.

“N-Raft: peptide spanning amino acids 28-73 of RGMa (SEQ ID NO:2) (SPCKILKCNSEFWAATSGSHHLGAEETPEFCTALRAYAHCTRRTAR; N-Raft - amino acids 28-73 of RGMa)”: the “interaction with the 4Ig-domain of DCC” value with 4Ig-domain of DCC was “No significant interaction”. Besides, the “pull-down of 4Ig-domain by peptide-coated beads” value in assay [1] is listed as “pulled down”.

B1: 4Ig: four immunoglobulin-like domains of Neogenin, amino acids 1 to 383 of Accession No. AAC59662 (SEQ ID NO:1) (protein, listed as Gallus gallus)
chain: RSGPRSPLTGSVVRTFTPFYFLVEPMDILSVRGASVIMNCSSYCETPPKIEWKKDGTLLNLVSDDRRQLLPDGSLLINSVVHSKHNKPDEGYYQCVATVESLGSIVSRTAKLTVAGLPRFTSQPELSSVYKGNSAILNCEVNVDLAPFVRWEQDRQPLSLDDRVFKLPSGALLIGNATDTDGGFYRCVIESGGTPKYSEEAELKILPDPEEPQSLVFVRQPSSLTKVTGQNAVFPCVAGGFPTPYVRWTKNGEELITEDSERFALRAGGSLLISDVTEEDVGTYTCIADNENETIEAQAELAVQVPPEFLKRPANIYAHESMDIVFECEVTGKPTPTVKWVKNGDVVIPSDYFKIVKEHNLQVLGLVKSDEGFYQCIAENDVGNAQAGAQLIILDLDVAIPTLPPTSLTSATNDHLAPATTGPLPTAPRDVVATLVSTRFIRLTWRTPVSDPQGDNLTYSIFYTKEGINRERVENTSRPGETQVMIQNLMPETVYVFRVVAQNKHGHGESSAPLKVATQPEVQLPGPAPNIRAYAGSPTSVTVTWETPLSGNGEIQNYKLYYMEKGQDSEQDVDVAGLSYTITGLKKYTEYSFRVVAYNKHGPGVSTQDVVVRTLSDVPSAAPQNLTLEARNSKSIMLHWQPPPAGTHSGQITGYKIRYRKVSRKSDVTESVGGTQLFQLIEGLERGTEYNFRIAAMTVNGTGPATDWVSAETFESDLDESRVPEVPSSLHVRPLVTSIVVSWTPPENQNIVVRGYAIGYGIGSPHAQTIKVDYKQRYYTIENLDPSSHYVITLKAFNNVGEGIPLYESAVTRPHSDTSEVDLFVINAPYTPVPDPSPMMPPVGVQASILSHDTIRITWADNSLPKNQKITDARYYTVRWKTNIPANTKYKTANATTLSYLVTGLKPNTLYEFSVMVTKGRRSSTWSMTAHGTTFELVPTSPPKDVTVVSKEGKPRTIIVNWQPPSEANGKITGYIIYYSTDVNAEIHDWVIEPVVGNRLTHQIQELTLDTPYYFKIQARNSKGMGPMSEAVQFRTPKAESSDKMPNDQASGSAGKGSRPVDVGPDYKPPLSGSNSPHGSPTSPLDSNMLLVIIVSVGVITIVIVVIVAVFCTRRTTSHQKKKRAACKSVNGSHKYKGNSKDVKPPDLWIHHERLELKPIDKSPDPNPIMTDTPIPRNSQDITPVDNSMDSNIHQRRNSYRGHESEDSMSTLAGRRGMRPKMMMPFDSQPPQPVISAHPIHSLDNPHHHFHSGSLASPTRSYLHHQVSPWPVGTSMSHSDRANSTESVRNTPSSDTMPASSSQPCADHQDPDSSSGAYLGSAQEEDAAQSLPTAHVRPSHPLKSFAVPAVPAAGSAYDPTLPSTPLLTQQAPSHPVHSVKTASIGTLGRTRPPMPVVVPSAPDVQETTRMLEDSESSYEPDELTKEMAHLEGLMKDLNAITTA
modifications: Neogenin - Accession No. AAC59662
As for B1, the clinical score in the assay with EAE paralysis is on record as 1.4. For the same molecule, in the assay with retinal whole mounts, the “reduction of the number of dead neurons compared to controls” value is recorded as “two-fold”.
